Experimental findings from patent US7465453B2, “Polypeptide fragments of CKLF1” (Peking University, priority 2004, dated 2008) are described below.

Entries after “also recorded” stand apart in the source; their conditions may differ.

Assay type in all cases: cell-based
Experiment [1] has as its system U937 cells. The experiment is described as follows: Chemotaxis of U937 cells. To be noted: for migration (chemotaxis) of U937 cells: C19, C27, RANTES: U937 cells stimulated by 30 ng/ml IFN-γ. Here is the method:
The chemotaxis assay was performed using a 48-well microchemotaxis chamber (Neutroprobe, Cabin John, Md., U.S.A.). U937 cells were stimulated by 30 ng/ml IFN-γ for 4 days because IFN-γ could increase the expression of chemokine receptors CCR1, CCR3, and CCR5 in U937 cells. Then part cells were incubated with mouse anti CCR5 100 μg/ml, and/or rat anti CCR3 10 μg/ml for 30 minutes at 37° C., and corresponding mouse IgG and rat IgG as controls. Chemoattractants RANTES, C19 and C27 were diluted in HEPES-buffered RPMI 1640 medium supplemented with 0.5% BSA to indicate concentration, and placed in the lower wells (28 μl/well). U937 cells stimulated by IFN-γ were resuspended in the same medium at 1×10^6 cells/ml and added to the upper wells (50 μl/well), which were separated from the lower wells by a polyvinylpyrrolidone-free polycarbonate filter with 5-μm pores pre-coated by 0.001% fibronectin. The chamber was incubated for 2 hours at 37° C. in 5% CO2 and 95% air. Filters were removed from the chamber, washed, fixed, and stained with Three Step Stain Set. Cells that migrated were counted in 5 randomly selected high power fields (400×) per well. The group with no Chemoattractants in the lower wells was used as a control. All samples were assayed twice at least. The chemotactic index (CI) was calculated from the number of cells that migrated to the control. Significant chemotaxis was defined as CI>2.

For experiment [2], the target named is T1, CCR4 (Homo sapiens, UniProt P51679).
T1 construct: The cDNA fragments covering the open reading frames for various chemokine receptors were obtained as follows; expressed in transfected cells; host or cells: HEK293 (transient, electroporation)
T1 sequence (P51679 1-360): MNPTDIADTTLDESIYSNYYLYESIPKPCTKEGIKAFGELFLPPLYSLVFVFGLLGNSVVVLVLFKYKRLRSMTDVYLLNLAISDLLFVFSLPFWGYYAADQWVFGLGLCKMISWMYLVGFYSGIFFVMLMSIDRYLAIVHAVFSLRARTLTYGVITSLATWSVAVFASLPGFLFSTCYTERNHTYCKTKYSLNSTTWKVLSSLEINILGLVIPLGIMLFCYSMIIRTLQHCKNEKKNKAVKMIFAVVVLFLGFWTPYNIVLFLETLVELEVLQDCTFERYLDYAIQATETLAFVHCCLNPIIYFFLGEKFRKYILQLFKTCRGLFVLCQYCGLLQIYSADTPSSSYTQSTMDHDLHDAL
The experiment is described as follows: Internalization of CCR4-EGFP in transiently transfected HEK293 cells. Conditions: HEK293 cells transfected with pCCR4-EGFP; 37° C., 2 hours. The method, then:
The cDNA fragment covering the open reading frame for CCR4 chemokine receptor was cloned into pEGFP-N1 vector (CLONTECH). pCCR4-EGFP transiently expressing HEK293 cells were cultured in glass-bottom dishes in RPMI 1640 with 10% FBS. After 16 to 24 hours serum starvation, cells were treated with CKLF1 C-terminal peptides or TARC at 37° C. for 2 hours. Cells were washed with cold PBS and fixed with 2% paraformaldehyde in PBS. The subcellular localization of CCR4-EGFP protein was visualized using a Leica TCS-NT confocal fluorescence microscope with a 63× oil immersion lens (Wetzler, Heidelberg, Germany). The excitation and emission wavelengths were 488 and 515-540 nm, respectively.

Experiment [3] has as its target T2, CCR5 (Homo sapiens, UniProt P51681).
T2 construct: The cDNA fragments covering the open reading frames for various chemokine receptors were obtained as follows; expressed in transfected cells; host or cells: HEK293 (transient, electroporation)
Kind of experiment: Chemotaxis assay (48-well microchemotaxis chamber) of HEK293 cells transfected with CCR5. Conditions: for chemotaxis induced after PTX pretreatment: CCR5-transfected HEK293 cells treated with 100 ng/ml PTX at 37° C. for 30 min; for desensitization of the receptor to subsequent stimulation with RANTES, C27 or C19 (chemotaxis): HEK293/CCR5, pretreatment 1 mM RANTES or 2 μg/ml C27 or C19, 37° C., 30 min. The method, then: (§1) HEK293 cells were grown in RPMI 1640 supplemented with 10% heat-inactivated FBS, penicillin (100 U/ml) and streptomycin (100 μg/ml). Every 4×10^6 HEK293 cells in 400 μl were transiently transfected by electroporation with 15 μg of the expression plasmid at 120 V, 20 ms using an electric pulse generator (Electro Square Porator ECM 830, BTX, San Diego, Calif.), and calcium mobilization assay and chemotaxis assays were performed 48 hours later.
The chemotaxis assay was performed using a 48-well microchemotaxis chamber (Neutroprobe; Cabin John, Md., U.S.A.). Chemoattractants were diluted in HEPES-buffered RPMI 1640 medium supplemented with 0.1% BSA and placed in the lower wells (28 μl/well). HEK293 cells transfected with pcDI-CCR4, -CCR5 were resuspended in the same medium at 2×10^6 cells/ml and added to the upper wells (50 μl/well), which were separated from the lower wells by a polyvinylpyrrolidone-free polycarbonate filter with 8-μm pores. The chamber was incubated for 2 hours at 37° C. in 5% CO2 and 95% air. Filters were removed from the chamber, washed, fixed, and stained with Three Step Stain Set. Cells that migrated were counted in 5 randomly selected high power fields (400×) per well. The chemotactic index (CI) was calculated from the number of cells that migrated to the control. Significant chemotaxis was defined as CI>2. […]

Experiment [4] has as its target T2, CCR5. The experiment is described as follows: Calcium flux assay in CCR5-transfected HEK293 cells. To be noted: for calcium flux: CCR5-transfected HEK293 cells, 167 nM C27 or C19, 100 nM RANTES; for desensitization of transfectants to subsequent RANTES treatment: CCR5 transfectants, first 167 nM peptide, then 100 nM RANTES.
Description: The cDNA fragments covering the open reading frames for various chemokine receptors were obtained as follows. CCR4, CCR5 and CCR6 receptors were cloned from a K562 cell cDNA library by polymerase chain reaction (PCR). The primers were designed using the sequences from the following GenBank™ submissions: CCR4 (NM_005508.2), CCR5 (NM_000579) and CCR6 (AY242126). The fragments were cloned into an expression vector pcDI (modified in our lab from pcDNA3 vector (Invitrogen), in which the part between BgI II-Kpn I was replaced by the fragment of pCl vector (Promega) digested with BgI II-Kpn I) or pEGFP-N1 vector (CLONTECH) for efficient expression in HEK293 cells. The sequences coding receptors in expression plasmids were confirmed by DNA sequencing, which is consistent with the sequence submitted in GenBank™.
as §1
HEK293 cells transfected with pcDI-CCR4 or pcDI-CCR5 were grown in specialized glass-bottom microwell dishes (MatTek Corporation, U.S.A.) and loaded with 10 μM fluo-3/AM in HEPES-buffered saline at 37° C. for 1 hour in the dark. The cells were rinsed with HEPES-buffered saline and stimulated with 167 nM secreted CKLF1 peptides and 100 nM TARC or RANTES, respectively. Fluorescence was monitored at 488 nm (excitation wavelength) and 530 nm (emission wavelength) every 5 second using a Leica TCS-NT confocal fluorescence microscope with a 40× oil immersion lens (Wetzler, Heidelberg, Germany). The measurement was completed at room temperature and each field of cells was selected at random. Images were collected at 5 second intervals for 405 seconds. The images were analyzed for relative fluorescence using Leica confocal software. The relative fluorescence was determined using Microsoft Excel. All calcium flux assays were performed in the presence of extracellular calcium (in the absence of EDTA or EGTA) in the assay buffers. Therefore, both intracellular calcium release and extracellular calcium influx were analyzed.
On the technique in general: Calcium flux is commonly read through the fluorescence of an indicator in the cells.

T2 sequence (P51681 whole entry, the tested form may be a part): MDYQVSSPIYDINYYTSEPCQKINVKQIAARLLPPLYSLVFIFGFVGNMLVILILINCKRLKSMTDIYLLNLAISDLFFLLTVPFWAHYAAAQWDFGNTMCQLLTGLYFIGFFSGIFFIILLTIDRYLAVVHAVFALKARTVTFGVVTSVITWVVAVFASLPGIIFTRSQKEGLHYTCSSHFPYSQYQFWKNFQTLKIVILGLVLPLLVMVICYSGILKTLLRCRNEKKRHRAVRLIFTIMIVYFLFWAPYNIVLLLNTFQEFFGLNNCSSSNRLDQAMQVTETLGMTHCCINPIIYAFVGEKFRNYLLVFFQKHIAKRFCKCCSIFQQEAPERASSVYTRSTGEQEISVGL

As to “ALIYRKL LFNPSGPYQKKPVHEKKEVL (ALIYRKLLFNPSGPYQKKPVHEKKEVL; listed as Homo sapiens) [C27]”, the “migration (chemotaxis) of U937 cells” value in experiment [1] is “could induce migration”. The “chemotactic activity after neutralization of chemokine receptors” value in experiment [1] (IFN-γ-stimulated U937 cells, mouse anti CCR5 and/or rat anti CCR3) is listed as “had no chemotactic activity; also recorded: obviously inhibited”. For the same substance, the “internalization of CCR4-EGFP” value in experiment [2] is “could induce internalization of CCR4-EGFP”. Moreover, in experiment [3] (CCR5-transfected HEK293 cells), the “migration (chemotaxis) of transfected cells” value is “could induce migration”. Besides, in experiment [3], the “chemotaxis induced after PTX pretreatment” value is listed as “completely abolished by PTX” and the “desensitization of the receptor to subsequent stimulation with RANTES, C27 or C19 (chemotaxis)” value is given as “could desensitize the receptor”. Besides, in experiment [4], the calcium flux result is “a strong calcium flux” and the “desensitization of transfectants to subsequent RANTES treatment” value is “could desensitize”.

On to “FNPSGPYQKKPVHEKKEVL (listed as Homo sapiens) [C19]”, for which, in experiment [1], the “migration (chemotaxis) of U937 cells” value was “could induce migration”. Moreover, the “internalization of CCR4-EGFP” value in experiment [2] is on record as “could induce internalization of CCR4-EGFP”. In experiment [3], the “chemotaxis induced after PTX pretreatment” value was “completely abolished by PTX” and the “desensitization of the receptor to subsequent stimulation with RANTES, C27 or C19 (chemotaxis)” value is listed as “could desensitize the receptor”. Also, in experiment [4], the calcium flux result was “a strong calcium flux” and the “desensitization of transfectants to subsequent RANTES treatment” value is on record as “could desensitize”.
